Results: the supplement of paper PMC12764529
± gives the half width of the 95% confidence interval.

Legend:
[1] = folding stability dG unfold (combined trypsin and chymotrypsin); higher = more stable
In short: (§1)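 Designed mini-proteins with no cysteine and under 80 residues were kept only if AlphaFold2 dimer inter-PAE was above 15. In a PA-tagged cDNA display construct, they were digested with trypsin and chymotrypsin and then sequenced. K50 was inferred by Bayesian fitting of counts, and unfolding free energy was derived per protease or combined against a sequence-predicted unfolded-state K50 and a shared folded-state K50.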

[2] = folding stability dG unfold from trypsin proteolysis; higher = more stable
In short: as §1

[3] = folding stability dG unfold from chymotrypsin proteolysis; higher = more stable
In short: as §1

Row | Sequence | folding stability dG unfold [1] [kcal/mol] | folding stability dG unfold [2] [kcal/mol] | folding stability dG unfold [3] [kcal/mol]
1 | SAFRDLAKEIARDAGYPVELVEIEFTNDTWTFMIQMKNDGEPYYFRIEIEWPNPNPGDWRIEIDDVQPPSAG [r14_387_TrROS] | 2.78 ± 0.28 | 1.94 ± 0.14 | 3.09 ± 0.094
2 | SAGGKEEKVVEIEIKKEKLKKSKDGKVYSAEEIAKKLKKELPEENVEVEIVSYDKEKGVVKIKIKVKSAGGS [r16_284_TrROS_Hall] | 1.7 ± 0.36 | 1.51 ± 0.12 | 1.74 ± 0.18
3 | SAGGSAGGSPSVPPEWKVEIVEVTVHPDGSTVTAVIRFEDGSTVTVNSPEALARLVEGGNVVNSAGGSAGGS [r12_455_TrMRF] | 1.51 ± 0.14 | 1.12 ± 0.047 | 1.62 ± 0.11
4 | SAGGSAGGSAGGSTGITSTFFDPKTGTVTTTTLVPSTGTTTTTVTPVTIPGPAATTTLTSAGGSAGGSAGGS [r10_331_JUSTAS] | 0.888 ± 0.045 | 1.31 ± 0.067 | 0.55 ± 0.052
5 | SAGGKIIEAIKELLKEGKKLSKEEILKKLKEALRKKAEEEGKPIEEIEITSIHFDKETNEVHIEIKPSAGGS [r16_365_TrROS_Hall] | 2.57 ± 0.089 | 2.48 ± 0.12 | 2.63 ± 0.1
6 | SAVPAEGMSPEEAAALAEEVREAFEAEVKAAGGPIPADTVVTVDYALEGSPVTITLTFTTPDSVSTTVASAG [r14_501_JUSTAS] | 0.906 ± 0.06 | 1.12 ± 0.045 | 0.57 ± 0.079
7 | SAGGSAGGSAGKKKIVFLVEDPEEALKTLTFPKDANIEIEKIEVKPLPNGLYEVVIYLKNSAGGSAGGSAGG [r11_150_TrMRF] | 4.29 ± 0.24 | 2.76 ± 0.081 | 4.59 ± 0.1
8 | KKITIIIPSPDGYWVVIKIEWPNGRPINVFFRSPEELLNEIQRQLGMYPENFEITDIEVMPPDDLKEAMDNS [r1_119_TrROS] | 3.22 ± 0.11 | 2.77 ± 0.1 | 3.39 ± 0.12
9 | SAGGSAGGSAGGSMLVTEVSISPLPNGTVKVTTKLVLEPPDGVSVLEEESSVVSPEELSSAGGSAGGSAGGS [r4_389_JUSTAS] | 0.484 ± 0.099 | 0.11 ± 0.028 | 0.687 ± 0.041
10 | SAGGSAAPVPVGAELAAAAPGAAVTVELPDGVTATVTRVGDTLVVDVTRFSEPPLPVSSATATLPLSAGGSA [r15_558_JUSTAS] | 0.409 ± 0.05 | -0.369 ± 0.066 | 0.638 ± 0.028
11 | SAGGNIRIWFPGREIPIGGTVEDIKANIRKWLGRPIPEELIEQIDKGKTVSEIVDWLRKRGFPIRIWSAGGS [r16_601_TrROS] | 1.87 ± 0.11 | 1.78 ± 0.031 | 1.94 ± 0.16
12 | SAGGSAGGSAVITTETGGDSTVTTTTSLTGEGGTLTTTTTTTTTDGTTTTTTTTTDTGLSPTSSAGGSAGGS [r12_769_JUSTAS] | 2.16 ± 0.034 | 2.41 ± 0.062 | 1.99 ± 0.024
13 | SAGGSAGGDPRPVRVEVLRLEYDPPSGLLRALVRNPENDLLVFATLRIFPDPAGAELRVESVVFSAGGSAGG [r6_70_TrMRF] | 2.49 ± 0.11 | 1.39 ± 0.071 | 2.85 ± 0.1
14 | SAPFQIKEITVNPKDGEAEINFPLENLPPPWMIHIFDKDKGKTQWIPPGGEIEIRAPEGPVKIMIFWRDSAG [r14_134_TrROS] | 1.16 ± 0.25 | 1.27 ± 0.12 | 0.981 ± 0.45
15 | SADPVYYKITITLYIKGDSSSTKTFEIVVPAGDVEKAKEEAIKKIKEETGKPILKVETEVTKVPPEELLSAG [r14_104_JUSTAS] | 4.35 ± 0.17 | 3.89 ± 0.4 | 4.35 ± 0.13
16 | SAGGSAGGSAGFNFDIELERDPNGRARVMIKIPLPNGKHYIVIYEFDPDSGKMETKIFPVSAGGSAGGSAGG [r11_107_TrROS] | 3.43 ± 0.19 | 3.07 ± 0.086 | 3.82 ± 0.12
17 | SAGGGMTVTRTIYLPNMTEEEKKALAEEIAEEVREELEKRGYPVKEITVDVKFIPGKGIVIVTVTLKLSAGG [r13_212_JUSTAS] | 3.52 ± 0.055 | 3.29 ± 0.09 | 3.64 ± 0.089
18 | SAGGPGWQRIAKWEIPLPNGKDITIEPYYVNPNNNHYMYEIEIGDGKEIPFWVPPGDSPEDALDAILKSAGG [r13_470_TrROS] | -0.118 ± 0.16 | -0.194 ± 0.2 | -0.126 ± 0.32
19 | SAGGSAGGSAGSTILIKNEDGSLLLVTVSDGSITIERLPPAPPPKTYEKDPETKEWREVTSAGGSAGGSAGG [r11_590_TrROS_Hall] | 0.878 ± 0.057 | 1.06 ± 0.021 | 0.647 ± 0.063
20 | SAGGSAGGSAMVLNVPLEELLKLLGVPKEEVSYKKLEDESYELTLPDGTKVKVIVPKEILESAGGSAGGSAG [r3_477_JUSTAS] | 2.91 ± 0.13 | 2.81 ± 0.098 | 2.86 ± 0.036
21 | SAGGSAGGSAVVTLSPDGRRITITSRTVTYFKVTNTDDIAIETSVETVVTPLPSLGSPEVLASAGGSAGGSA [r18_6_JUSTAS] | 2.56 ± 0.28 | 3.04 ± 0.13 | 2.1 ± 0.098
